{
  "source": "patent US20190241648A1",
  "about": "(STATEN BIOTECHNOLOGY B V, published 2019)",
  "binders": {"B1": {"name": "anti-ApoC3 antibody 14C7 (antibody, V domains shown)", "VH": "QVQVQESGPGLVKPSQTLSLTCTVSGGSITTNSYYWSWIRQPPGKGLEWMGAIDYSGDTYYSPSLKSRTSISRDTSKNQFTLQLTSVTPEDTAVYYCVSRIPTGEYWGQGTQVTVSS", "VL": "QTVVTQEPSLSVSPGGTVTLTCGLNSGSVTSSNYPDWYQQTPGQAPRLLIYNTNSRHSGVPSRFSGSISGNKAALTITGAQPEDEADYYCALYMGSDSVVFGGGTHLTVL", "notes": "it was detected with goat anti-human IgG (Fc); also called mAb 14C7; llama antibody 14C7"}},
  "assay_in_all_cases": "peptide microarray",
  "key": {"ApoC3 peptide … G46N": {"target": "T1, ApoC3 peptide … G46N (human, not fully specified (bridges); also: cyclic constrained)", "T1 peptide": "ARGWVTDNFSSLK", "how_it_was_run": "(§1)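 Peptide microarrays of ApoC3-derived peptides incubated with antibody samples, then stained with goat anti-human IgG (Fc) DyLight680 (1:5000) and anti-HA DyLight800 (1:2000) control. Read-out by fluorescence scanning at intensities 7/7 (red/green); a secondary-only pre-stain checked background, HA frame peptides served as quality control.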"}, "ApoC3 peptide … L50T": {"target": "T2, ApoC3 peptide … L50T (human, not fully specified (bridges); also: cyclic constrained)", "T2 peptide": "ARGWVTDGFSSTK", "how_it_was_run": "as §1"}, "ApoC3 peptide … S49T": {"target": "T3, ApoC3 peptide … S49T (human, not fully specified (bridges); also: cyclic constrained)", "T3 peptide": "ARGWVTDGFSTLK", "how_it_was_run": "as §1"}, "[1]": {"target": "T4, wild-type ApoC3 peptide ARGWVTDGFSSLK (SEQ ID NO: 45) (human, not fully specified (bridges); also: cyclic constrained, ring type and positions not given here)", "T4 construct": "13 aa cyclic constrained peptide", "T4 peptide": "ARGWVTDGFSSLK", "how_it_was_run": "as §1"}, "ApoC3 peptide … G41D": {"target": "T5, ApoC3 peptide … G41D (human, also: cyclic constrained)", "T5 peptide": "ARDWVTDGFSSLK", "how_it_was_run": "as §1"}, "ApoC3 peptide … V43I": {"target": "T6, ApoC3 peptide … V43I (human, not fully specified; cyclic constrained)", "T6 peptide": "ARGWITDGFSSLK", "how_it_was_run": "as §1"}, "ApoC3 peptide … L50I": {"target": "T7, ApoC3 peptide … L50I (human, not fully specified; cyclic constrained)", "T7 peptide": "ARGWVTDGFSSIK", "how_it_was_run": "as §1"}, "ApoC3 peptide … F47T": {"target": "T8, ApoC3 peptide … F47T (human, also: cyclic constrained)", "T8 peptide": "ARGWVTDGTSSLK", "how_it_was_run": "as §1"}, "ApoC3 peptide … K51R": {"target": "T9, ApoC3 peptide … K51R (human, not fully specified; cyclic constrained)", "T9 peptide": "ARGWVTDGFSSLR", "how_it_was_run": "as §1"}, "ApoC3 peptide … A39F": {"target": "T10, ApoC3 peptide … A39F (human, cyclic constrained)", "T10 peptide": "FRGWVTDGFSSLK", "how_it_was_run": "as §1"}, "ApoC3 peptide … S48Q": {"target": "ApoC3 peptide … S48Q (human, cyclic constrained)", "how_it_was_run": "as §1"}, "ApoC3 peptide … L50H": {"target": "T11, ApoC3 peptide … L50H (human, not fully specified; cyclic constrained)", "T11 peptide": "ARGWVTDGFSSHK", "how_it_was_run": "as §1"}, "ApoC3 peptide … S49H": {"target": "T12, ApoC3 peptide … S49H (human, cyclic constrained)", "T12 peptide": "ARGWVTDGFSHLK", "how_it_was_run": "as §1"}, "ApoC3 peptide … S49M": {"target": "T13, ApoC3 peptide … S49M (human, cyclic constrained)", "T13 peptide": "ARGWVTDGFSMLK", "how_it_was_run": "as §1"}, "ApoC3 peptide … K51C": {"target": "T14, ApoC3 peptide … K51C (human, thioether (positions not given here); also: cyclic constrained)", "T14 peptide": "ARGWVTDGFSSLC", "how_it_was_run": "as §1"}, "ApoC3 peptide … G46D": {"target": "T15, ApoC3 peptide … G46D (human, also: cyclic constrained)", "T15 peptide": "ARGWVTDDFSSLK", "how_it_was_run": "as §1"}, "ApoC3 peptide … G46F": {"target": "T16, ApoC3 peptide … G46F (human, not fully specified (bridges); also: cyclic constrained)", "T16 peptide": "ARGWVTDFFSSLK", "how_it_was_run": "as §1"}, "ApoC3 peptide … S48A": {"target": "T17, ApoC3 peptide … S48A (human, thioether (positions not given here); also: cyclic constrained)", "T17 peptide": "ARGWVTDGFASLK", "how_it_was_run": "as §1"}, "ApoC3 peptide … R40Q": {"target": "T18, ApoC3 peptide … R40Q (human, not fully specified (bridges); also: cyclic constrained)", "T18 peptide": "AQGWVTDGFSSLK", "how_it_was_run": "as §1"}, "ApoC3 peptide … G46V": {"target": "T19, ApoC3 peptide … G46V (human, thioether (positions not given here); also: cyclic constrained)", "T19 peptide": "ARGWVTDVFSSLK", "how_it_was_run": "as §1"}, "ApoC3 peptide … K51A": {"target": "T20, ApoC3 peptide … K51A (human, thioether (positions not given here); also: cyclic constrained)", "T20 peptide": "ARGWVTDGFSSLA", "how_it_was_run": "as §1"}, "ApoC3 peptide … S48Y": {"target": "T21, ApoC3 peptide … S48Y (human, not fully specified (bridges); also: cyclic constrained)", "T21 peptide": "ARGWVTDGFYSLK", "how_it_was_run": "as §1"}, "ApoC3 peptide … L50R": {"target": "T22, ApoC3 peptide … L50R (human, not fully specified (bridges); also: cyclic constrained)", "T22 peptide": "ARGWVTDGFSSRK", "how_it_was_run": "as §1"}, "ApoC3 peptide … S49W": {"target": "T23, ApoC3 peptide … S49W (human, not fully specified (bridges); also: cyclic constrained)", "T23 peptide": "ARGWVTDGFSWLK", "how_it_was_run": "as §1"}, "ApoC3 peptide … G41Q": {"target": "T24, ApoC3 peptide … G41Q (human, also: cyclic constrained)", "T24 peptide": "ARQWVTDGFSSLK", "how_it_was_run": "as §1"}, "ApoC3 peptide … G41M": {"target": "T25, ApoC3 peptide … G41M (human, also: cyclic constrained)", "T25 peptide": "ARMWVTDGFSSLK", "how_it_was_run": "as §1"}, "ApoC3 peptide … V43K": {"target": "T26, ApoC3 peptide … V43K (human, not fully specified; cyclic constrained)", "T26 peptide": "ARGWKTDGFSSLK", "how_it_was_run": "as §1"}, "ApoC3 peptide … T44V": {"target": "T27, ApoC3 peptide … T44V (human, not fully specified (bridges); also: cyclic constrained)", "T27 peptide": "ARGWVVDGFSSLK", "how_it_was_run": "as §1"}, "ApoC3 peptide … R40Y": {"target": "T28, ApoC3 peptide … R40Y (human, thioether (positions not given here); also: cyclic constrained)", "T28 peptide": "AYGWVTDGFSSLK", "how_it_was_run": "as §1"}, "ApoC3 peptide … S49D": {"target": "ApoC3 peptide … S49D (human, cyclic constrained)", "how_it_was_run": "as §1"}},
  "note": "Ends that are not written are not given here.",
  "data": [
    {"binder": "B1", "values": [
      {"measurement": "% of binding to wild-type peptide", "setting": "ApoC3 peptide … G46N", "value": 10.4, "unit": "%"},
      {"measurement": "% of binding to wild-type peptide", "setting": "ApoC3 peptide … L50T", "value": 0, "unit": "%"},
      {"measurement": "% of binding to wild-type peptide", "setting": "ApoC3 peptide … S49T", "value": 6.21, "unit": "%"},
      {"measurement": "% of binding to wild-type peptide", "setting": "[1]", "value": 100, "unit": "%"},
      {"measurement": "% of binding to wild-type peptide", "setting": "ApoC3 peptide … G41D", "value": 19.4, "unit": "%"},
      {"measurement": "% of binding to wild-type peptide", "setting": "ApoC3 peptide … V43I", "value": 41, "unit": "%"},
      {"measurement": "% of binding to wild-type peptide", "setting": "ApoC3 peptide … L50I", "value": 9.47, "unit": "%"},
      {"measurement": "% of binding to wild-type peptide", "setting": "ApoC3 peptide … F47T", "value": 0, "unit": "%"},
      {"measurement": "% of binding to wild-type peptide", "setting": "ApoC3 peptide … K51R", "value": 57.4, "unit": "%"},
      {"measurement": "% of binding to wild-type peptide", "setting": "ApoC3 peptide … A39F", "value": 78.2, "unit": "%"},
      {"measurement": "% of binding to wild-type peptide", "setting": "ApoC3 peptide … S48Q", "value": 46.8, "unit": "%"},
      {"measurement": "% of binding to wild-type peptide", "setting": "ApoC3 peptide … L50H", "value": 0, "unit": "%"},
      {"measurement": "% of binding to wild-type peptide", "setting": "ApoC3 peptide … S49H", "value": 0.56, "unit": "%"},
      {"measurement": "% of binding to wild-type peptide", "setting": "ApoC3 peptide … S49M", "value": 1.86, "unit": "%"},
      {"measurement": "% of binding to wild-type peptide", "setting": "ApoC3 peptide … K51C", "value": 0, "unit": "%"},
      {"measurement": "% of binding to wild-type peptide", "setting": "ApoC3 peptide … G46D", "value": 0, "unit": "%"},
      {"measurement": "% of binding to wild-type peptide", "setting": "ApoC3 peptide … G46F", "value": 0.86, "unit": "%"},
      {"measurement": "% of binding to wild-type peptide", "setting": "ApoC3 peptide … S48A", "value": 75.5, "unit": "%"},
      {"measurement": "% of binding to wild-type peptide", "setting": "ApoC3 peptide … R40Q", "value": 85.8, "unit": "%"},
      {"measurement": "% of binding to wild-type peptide", "setting": "ApoC3 peptide … G46V", "value": 0, "unit": "%"},
      {"measurement": "% of binding to wild-type peptide", "setting": "ApoC3 peptide … K51A", "value": 10.1, "unit": "%"},
      {"measurement": "% of binding to wild-type peptide", "setting": "ApoC3 peptide … S48Y", "value": 5.83, "unit": "%"},
      {"measurement": "% of binding to wild-type peptide", "setting": "ApoC3 peptide … L50R", "value": 0, "unit": "%"},
      {"measurement": "% of binding to wild-type peptide", "setting": "ApoC3 peptide … S49W", "value": 0.27, "unit": "%"},
      {"measurement": "% of binding to wild-type peptide", "setting": "ApoC3 peptide … G41Q", "value": 27.1, "unit": "%"},
      {"measurement": "% of binding to wild-type peptide", "setting": "ApoC3 peptide … G41M", "value": 18.7, "unit": "%"},
      {"measurement": "% of binding to wild-type peptide", "setting": "ApoC3 peptide … V43K", "value": 25.4, "unit": "%"},
      {"measurement": "% of binding to wild-type peptide", "setting": "ApoC3 peptide … T44V", "value": 4.26, "unit": "%"},
      {"measurement": "% of binding to wild-type peptide", "setting": "ApoC3 peptide … R40Y", "value": 37.5, "unit": "%"},
      {"measurement": "% of binding to wild-type peptide", "setting": "ApoC3 peptide … S49D", "value": 0, "unit": "%"}
    ]}
  ]
}
